This is an account of results in paper PMC11410943.

Substrate in the data set: Cn1c(=O)ccc2ccc(F)c(CCNC[C@H]3CN(c4cnc5c(n4)NC(=O)CO5)C(=O)O3)c21
Description: OAT3 transport in HEK293 cells. As to conditions: other: HEK293; 37.0 °C. Type of data set: in vitro ADME, human.

B1: OAT3 (Homo sapiens) (protein)
chain: MTFSEILDRVGSMGHFQFLHVAILGLPILNMANHNLLQIFTAATPVHHCRPPHNASTGPWVLPMGPNGKPERCLRFVHPPNASLPNDTQRAMEPCLDGWVYNSTKDSIVTEWDLVCNSNKLKEMAQSIFMAGILIGGLVLGDLSDRFGRRPILTCSYLLLAASGSGAAFSPTFPIYMVFRFLCGFGISGITLSTVILNVEWVPTRMRAIMSTALGYCYTFGQFILPGLAYAIPQWRWLQLTVSIPFFVFFLSSWWTPESIRWLVLSGKSSKALKILRRVAVFNGKKEEGERLSLEELKLNLQKEISLAKAKYTASDLFRIPMLRRMTFCLSLAWFATGFAYYSLAMGVEEFGVNLYILQIIFGGVDVPAKFITILSLSYLGRHTTQAAALLLAGGAILALTFVPLDLQTVRTVLAVFGKGCLSSSFSCLFLYTSELYPTVIRQTGMGVSNLWTRVGSMVSPLVKITGEVQPFIPNIIYGITALLGGSAALFLPETLNQPLPETIEDLENWSLRAKKPKQEPEVEKASQRIPLQPHGPGLGSS
Broadly, the Km is the concentration of substrate that gives half-maximal velocity. As a reminder, the Vmax is the rate approached at saturating substrate. Turning to B1, the Michaelis-Menten constant (Km) came out at 121 µM and the Vmax was determined as 76.1 pmol/mg/min.
